Results taken from patent US20140274782A1, “AFFINITY REAGENTS AND METHODS FOR DETECTION, PURIFICATION, AND PROTEOMIC ANALYSIS OF METHYLATED PROTEINS” (The Board of Trustees of the Leland Stanford Junior …, priority 2013, published 2014).

B1: SEC23B (protein, UniProt Q15437 2-767, looked up)
Protein transport protein …: ATYLEFIQQNEERDGVRFSWNVWPSSRLEATRMVVPLACLLTPLKERPDLPPVQYEPVLCSRPTCKAVLNPLCQVDYRAKLWACNFCFQRNQFPPAYGGISEVNQPAELMPQFSTIEYVIQRGAQSPLIFLYVVDTCLEEDDLQALKESLQMSLSLLPPDALVGLITFGRMVQVHELSCEGISKSYVFRGTKDLTAKQIQDMLGLTKPAMPMQQARPAQPQEHPFASSRFLQPVHKIDMNLTDLLGELQRDPWPVTQGKRPLRSTGVALSIAVGLLEGTFPNTGARIMLFTGGPPTQGPGMVVGDELKIPIRSWHDIEKDNARFMKKATKHYEMLANRTAANGHCIDIYACALDQTGLLEMKCCANLTGGYMVMGDSFNTSLFKQTFQRIFTKDFNGDFRMAFGATLDVKTSRELKIAGAIGPCVSLNVKGPCVSENELGVGGTSQWKICGLDPTSTLGIYFEVVNQHNTPIPQGGRGAIQFVTHYQHSSTQRRIRVTTIARNWADVQSQLRHIEAAFDQEAAAVLMARLGVFRAESEEGPDVLRWLDRQLIRLCQKFGQYNKEDPTSFRLSDSFSLYPQFMFHLRRSPFLQVFNNSPDESSYYRHHFARQDLTQSLIMIQPILYSYSFHGPPEPVLLDSSSILADRILLMDTFFQIVIYLGETIAQWRKAGYQDMPEYENFKHLLQAPLDDAQEILQARFPMPRYINTEHGGSQARFLLSKVNPSQTHNNLYAWGQETGAPILTDDVSLQVFMDHLKKLAVSSAC
B2: ATXN2L (protein, UniProt Q8WWM7 1-1075, looked up)
Ataxin-2-like protein: MLKPQPLQQPSQPQQPPPTQQAVARRPPGGTSPPNGGLPGPLATSAAPPGPPAAASPCLGPVAAAGSGLRRGAEGILAPQPPPPQQHQERPGAAAIGSARGQSTGKGPPQSPVFEGVYNNSRMLHFLTAVVGSTCDVKVKNGTTYEGIFKTLSSKFELAVDAVHRKASEPAGGPRREDIVDTMVFKPSDVMLVHFRNVDFNYATKDKFTDSAIAMNSKVNGEHKEKVLQRWEGGDSNSDDYDLESDMSNGWDPNEMFKFNEENYGVKTTYDSSLSSYTVPLEKDNSEEFRQRELRAAQLAREIESSPQYRLRIAMENDDGRTEEEKHSAVQRQGSGRESPSLASREGKYIPLPQRVREGPRGGVRCSSSRGGRPGLSSLPPRGPHHLDNSSPGPGSEARGINGGPSRMSPKAQRPLRGAKTLSSPSNRPSGETSVPPPPAVGRMYPPRSPKSAAPAPISASCPEPPIGSAVPTSSASIPVTSSVSDPGVGSISPASPKISLAPTDVKELSTKEPGRTLEPQELARIAGKVPGLQNEQKRFQLEELRKFGAQFKLQPSSSPENSLDPFPPRILKEEPKGKEKEVDGLLTSEPMGSPVSSKTESVSDKEDKPPLAPSGGTEGPEQPPPPCPSQTGSPPVGLIKGEDKDEGPVAEQVKKSTLNPNAKEFNPTKPLLSVNKSTSTPTSPGPRTHSTPSIPVLTAGQSGLYSPQYISYIPQIHMGPAVQAPQMYPYPVSNSVPGQQGKYRGAKGSLPPQRSDQHQPASAPPMMQAAAAAGPPLVAATPYSSYIPYNPQQFPGQPAMMQPMAHYPSQPVFAPMLQSNPRMLTSGSHPQAIVSSSTPQYPSAEQPTPQALYATVHQSYPHHATQLHAHQPQPATTPTGSQPQSQHAAPSPVQHQAGQAPHLGSGQPQQNLYHPGALTGTPPSLPPGPSAQSPQSSFPQPAAVYAIHHQQLPHGFTNMAHVTQAHVQTGITAAPPPHPGAPHPPQVMLLHPPQSHGGPPQGAVPQSGVPALSASTPSPYPYIGHPQGEQPGQAPGFPGGADDRIREFSLAGGIWHGRAEGLQVGQDARVLGGE
B3: RFC1 (protein, UniProt P35251 1-1148, looked up)
Replication factor C subunit 1: MDIRKFFGVIPSGKKLVSETVKKNEKTKSDEETLKAKKGIKEIKVNSSRKEDDFKQKQPSKKKRIIYDSDSESEETLQVKNAKKPPEKLPVSSKPGKISRQDPVTYISETDEEDDFMCKKAASKSKENGRSTNSHLGTSNMKKNEENTKTKNKPLSPIKLTPTSVLDYFGTGSVQRSNKKMVASKRKELSQNTDESGLNDEAIAKQLQLDEDAELERQLHEDEEFARTLAMLDEEPKTKKARKDTEAGETFSSVQANLSKAEKHKYPHKVKTAQVSDERKSYSPRKQSKYESSKESQQHSKSSADKIGEVSSPKASSKLAIMKRKEESSYKEIEPVASKRKENAIKLKGETKTPKKTKSSPAKKESVSPEDSEKKRTNYQAYRSYLNREGPKALGSKEIPKGAENCLEGLIFVITGVLESIERDEAKSLIERYGGKVTGNVSKKTNYLVMGRDSGQSKSDKAAALGTKIIDEDGLLNLIRTMPGKKSKYEIAVETEMKKESKLERTPQKNVQGKRKISPSKKESESKKSRPTSKRDSLAKTIKKETDVFWKSLDFKEQVAEETSGDSKARNLADDSSENKVENLLWVDKYKPTSLKTIIGQQGDQSCANKLLRWLRNWQKSSSEDKKHAAKFGKFSGKDDGSSFKAALLSGPPGVGKTTTASLVCQELGYSYVELNASDTRSKSSLKAIVAESLNNTSIKGFYSNGAASSVSTKHALIMDEVDGMAGNEDRGGIQELIGLIKHTKIPIICMCNDRNHPKIRSLVHYCFDLRFQRPRVEQIKGAMMSIAFKEGLKIPPPAMNEIILGANQDIRQVLHNLSMWCARSKALTYDQAKADSHRAKKDIKMGPFDVARKVFAAGEETAHMSLVDKSDLFFHDYSIAPLFVQENYIHVKPVAAGGDMKKHLMLLSRAADSICDGDLVDSQIRSKQNWSLLPAQAIYASVLPGELMRGYMTQFPTFPSWLGKHSSTGKHDRIVQDLALHMSLRTYSSKRTVNMDYLSLLRDALVQPLTSQGVDGVQDVVALMDTYYLMKEDFENIMEISSWGGKPSPFSKLDPKVKAAFTRAYNKEAHLTPYSLQAIKASRHSTSPSLDSEYNEELNEDDSQSDEKDQDAIETDAMIKKKTKSSKPSKPEKDKEPRKGKGKSSKK

Columns and labels:
3×MBT domain of L3MBTL1 = experiment: Triple SILAC pull-down, 3xMBT/3xMBTD355N ratio (cytoplasmic, nuclear and chromatin fractions of 293T cells); format: binding, human; settings: SILAC ratio, pull-down 3xMBT vs 3xMBTD355N; for 3xMBT/D355N UNC Heavy: experiment with UNC0638 in heavy SILAC media; for 3xMBT/D355N UNC Light: experiment with UNC0638 in light SILAC media;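 as to all read-outs here: proteins quantified with MaxQuant, requiring at least two unique peptides and quantification in both label directions, normalized to the mean of proteins from a digested loading control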
G9a and GLP = biological target: T1, G9a and GLP (Homo sapiens, UniProt Q96KQ7+Q9H9B1); experiment: Triple SILAC pull-down after UNC0638 treatment of 293T cells, DMSO/UNC0638 ratio of protein captured by 3×MBT; format: cell-based; parameters: cells were treated for 24 hours with UNC0638 at 2.5 μM or DMSO vehicle control; endogenous in cells; host or cells: HEK 293T; settings: for Relative to UNC0638 UNC Heavy / Relative to UNC0638 UNC Light: SILAC ratio DMSO/UNC0638 of protein pulled down with 3xMBT; for Relative to UNC0638 UNC Heavy: UNC0638 in heavy SILAC media; for Relative to UNC0638 UNC Light: UNC0638 in light SILAC media; for Relative to UNC0638 Average: average of UNC Light and UNC Heavy experiments;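 as to all read-outs here: mass spectrometry (Q-Exactive) SILAC quantitation, DMSO/UNC0638 ratio computed after subtracting 3×MBTD355N mutant pull-down background, only proteins with at least twofold 3×MBT over mutant signal considered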
T1 sequence (Q96KQ7 2-1210 limits assumed): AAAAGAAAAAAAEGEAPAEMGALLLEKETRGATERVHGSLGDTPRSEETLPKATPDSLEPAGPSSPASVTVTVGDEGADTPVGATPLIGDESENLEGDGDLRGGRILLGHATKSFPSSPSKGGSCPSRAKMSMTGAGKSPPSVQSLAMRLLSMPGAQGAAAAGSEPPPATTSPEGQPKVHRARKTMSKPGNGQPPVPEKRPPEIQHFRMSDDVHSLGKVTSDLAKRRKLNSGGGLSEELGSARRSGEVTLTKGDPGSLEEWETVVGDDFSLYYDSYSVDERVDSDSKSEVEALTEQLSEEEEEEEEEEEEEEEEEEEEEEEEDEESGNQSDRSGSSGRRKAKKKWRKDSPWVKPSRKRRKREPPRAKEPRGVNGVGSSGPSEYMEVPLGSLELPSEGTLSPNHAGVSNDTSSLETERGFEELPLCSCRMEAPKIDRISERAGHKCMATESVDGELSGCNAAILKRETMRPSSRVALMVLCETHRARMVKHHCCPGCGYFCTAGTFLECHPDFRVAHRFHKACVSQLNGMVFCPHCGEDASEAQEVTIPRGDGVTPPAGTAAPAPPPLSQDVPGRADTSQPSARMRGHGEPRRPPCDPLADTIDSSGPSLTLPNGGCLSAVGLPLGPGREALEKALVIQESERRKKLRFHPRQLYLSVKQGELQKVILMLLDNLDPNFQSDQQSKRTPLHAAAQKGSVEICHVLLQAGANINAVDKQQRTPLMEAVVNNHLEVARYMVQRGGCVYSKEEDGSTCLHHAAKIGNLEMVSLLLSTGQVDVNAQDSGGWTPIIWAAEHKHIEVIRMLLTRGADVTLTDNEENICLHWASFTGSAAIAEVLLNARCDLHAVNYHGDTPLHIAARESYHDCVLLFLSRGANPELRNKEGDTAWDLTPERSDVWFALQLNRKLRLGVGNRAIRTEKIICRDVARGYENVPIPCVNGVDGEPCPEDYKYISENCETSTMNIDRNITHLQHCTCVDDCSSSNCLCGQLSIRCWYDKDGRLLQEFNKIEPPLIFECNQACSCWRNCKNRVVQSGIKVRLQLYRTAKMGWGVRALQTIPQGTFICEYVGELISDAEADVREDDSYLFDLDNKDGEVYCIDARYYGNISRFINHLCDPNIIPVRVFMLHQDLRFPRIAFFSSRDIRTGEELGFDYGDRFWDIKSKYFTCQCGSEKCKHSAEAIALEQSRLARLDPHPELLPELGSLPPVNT
T1 sequence (Q9H9B1 2-1298 limits assumed): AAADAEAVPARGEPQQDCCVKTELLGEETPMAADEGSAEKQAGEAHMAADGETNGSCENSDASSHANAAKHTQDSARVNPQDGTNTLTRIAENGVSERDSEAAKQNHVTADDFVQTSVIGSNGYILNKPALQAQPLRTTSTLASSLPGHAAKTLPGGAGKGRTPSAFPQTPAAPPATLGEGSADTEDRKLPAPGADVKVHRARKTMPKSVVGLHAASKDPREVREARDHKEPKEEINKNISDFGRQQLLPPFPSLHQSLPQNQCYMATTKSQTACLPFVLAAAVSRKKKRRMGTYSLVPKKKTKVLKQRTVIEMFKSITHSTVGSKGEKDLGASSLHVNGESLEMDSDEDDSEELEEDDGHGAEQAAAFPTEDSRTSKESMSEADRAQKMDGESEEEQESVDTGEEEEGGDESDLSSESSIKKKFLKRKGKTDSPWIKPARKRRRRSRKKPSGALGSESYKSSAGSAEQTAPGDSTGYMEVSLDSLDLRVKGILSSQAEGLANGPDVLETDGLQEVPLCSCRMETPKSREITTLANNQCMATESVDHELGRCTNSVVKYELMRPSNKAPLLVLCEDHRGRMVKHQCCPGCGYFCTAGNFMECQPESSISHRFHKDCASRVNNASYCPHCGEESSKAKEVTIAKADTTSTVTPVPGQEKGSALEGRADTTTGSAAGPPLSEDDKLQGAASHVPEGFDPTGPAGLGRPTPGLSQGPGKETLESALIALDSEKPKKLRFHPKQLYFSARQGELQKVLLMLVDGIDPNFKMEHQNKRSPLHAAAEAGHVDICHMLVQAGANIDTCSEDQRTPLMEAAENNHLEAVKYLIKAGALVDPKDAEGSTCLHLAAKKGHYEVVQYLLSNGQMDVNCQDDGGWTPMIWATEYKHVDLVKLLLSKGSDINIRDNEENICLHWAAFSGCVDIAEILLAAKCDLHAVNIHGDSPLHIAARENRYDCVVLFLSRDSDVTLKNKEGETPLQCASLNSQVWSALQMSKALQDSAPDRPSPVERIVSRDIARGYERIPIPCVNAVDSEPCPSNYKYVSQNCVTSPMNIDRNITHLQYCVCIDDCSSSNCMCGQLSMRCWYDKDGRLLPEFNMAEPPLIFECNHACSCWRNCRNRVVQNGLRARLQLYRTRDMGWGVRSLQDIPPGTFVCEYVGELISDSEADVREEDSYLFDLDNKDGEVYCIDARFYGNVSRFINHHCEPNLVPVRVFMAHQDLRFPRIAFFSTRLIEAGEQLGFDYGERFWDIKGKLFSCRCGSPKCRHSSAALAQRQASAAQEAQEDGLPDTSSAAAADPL

Molecule | 3xMBT/D355N UNC Heavy (3×MBT domain of L3MBTL1) [log base 2] | 3xMBT/D355N UNC Light (3×MBT domain of L3MBTL1) [log base 2] | Relative to UNC0638 UNC Heavy (G9a and GLP) [log base 2] | Relative to UNC0638 UNC Light (G9a and GLP) [log base 2] | Relative to UNC0638 Average (G9a and GLP) [log base 2]
B1 | 3.24 | 3.16 | 0.17 | 0.24 | 0.21
B2 | 2.64 | 2.66 | 0.31 | 0.12 | 0.21
B3 | 1.29 | −1.32 | 0.61 | −0.18 | 0.21
